{
  "source": "patent US20260184811A1",
  "about": "(CEREIUS, published 2026)",
  "binders": {"B1": {"name": "VHH_130 (VHH)", "VHH": "EVQLVESGGGLVQAGGSLRLSCAASGITFSINTMGWYRQAPGKQRELVALISSIGDTYYADSVRGRFTISRDNAKNTVYLQMNSLKPEDTAVYYCRRFRTAAQGTDYWGQGTQVTVSS", "notes": "also called VHH ID 130"}, "B2": {"name": "VHH_129 (VHH)", "VHH": "B1 VHH with R64K", "notes": "also called VHH ID 129"}, "B3": {"name": "VHH_134 (VHH)", "VHH": "B1 VHH with K75R, K86R", "notes": "also called VHH ID 134"}, "B4": {"name": "VHH_107 (VHH)", "VHH": "QVQLVESGGGLVQPGGSLRLSCAASGSIFSINVMGWYRQAPGMQRQLVAIITSGGSTNYADSVKGRFTVSRDNAKNTLYLRMNSLKPEDTAVYYCATIHVRESTWYYAYWGQGTQVTVSS", "notes": "also called VHH ID 107"}, "B5": {"name": "VHH_108 (VHH)", "VHH": "QVQLVESGGGLVQAGGSLRLSCAASGRTFSSYAMGWFRQAPGLEREFVAAIARGGVSTGYADSVKGRFAISRDNAKNMVYLQMNSLKPEDTAVYYCATYFWGSPHYWGQGTQVTVSS", "notes": "also called VHH ID 108"}, "B6": {"name": "VHH_109 (VHH)", "VHH": "QVQLVESGGGLVQPGGSLRLSCEASGFTFDDYGMSWVRQAPGKGLEWVSGITWNGGNPNYADSVKGRFTISRDNAKRTLYLQMNSLKAEDTAVYYCQRGYSRGYMYWGQGTQVTVSS", "notes": "also called VHH ID 109"}, "B7": {"name": "VHH_118 (VHH)", "VHH": "EVQLVESGGGLVQPGGSLRLSCAASEFTFSNYAMSWVRQAPGKGLEWVSAINWSGGITTYADSVKGRFTISRDNAKNTLHLQMNSLKPEDTAVYYCAKGWGTTTRDTGLLSQGTLVTVSS", "notes": "also called VHH ID 118"}, "B8": {"name": "VHH_110 (VHH)", "VHH": "QVQLVESGGGSVQLGGSLRLSCAVSGLGFSALAMGWFRQAPGKERERVAAISRTGGTTYYTDSVKGRFTISRDNGKNMVYLQMNSLKPEDAAVYYCASRYTALLSTTARGYDYWGQGTQVTVSS", "notes": "also called VHH ID 110"}, "B9": {"name": "VHH_123 (VHH)", "VHH": "QVQLVESGGGLVQAGGSLRLSCAASGRTFNSYFYTMAWFRQAPGKEREFVARMNWNADSTYHADSVKGRFTISRENTVYLQMNSLEPEDTAVYYCAAKSISAPKYDYWGQGTQVTVSS", "notes": "also called VHH ID 123"}},
  "key": {"human HER2 receptor [1]": {"biological_target": "T1, human HER2 receptor (human, UniProt P04626)", "assay": "ELISA specificity panel on ErbB family receptors, VHH titrated, A450"}, "human HER2 receptor [2]": {"biological_target": "T1, human HER2 receptor", "assay": "ELISA specificity panel on ErbB family receptors, VHH titrated, A450", "remark": "listed apart in the source"}, "human HER2 receptor [3]": {"biological_target": "T1, human HER2 receptor", "assay": "ELISA specificity panel on ErbB family receptors, VHH titrated, A450", "remark": "listed apart in the source"}, "human HER2 receptor [4]": {"biological_target": "T1, human HER2 receptor", "assay": "ELISA on human HER2 receptor, purified VHH titrated, A450"}, "human HER2 receptor [5]": {"biological_target": "T1, human HER2 receptor", "assay": "ELISA on human HER2 receptor, purified VHH titrated, A450", "remark": "listed apart in the source"}, "human HER2 receptor [6]": {"biological_target": "T1, human HER2 receptor", "assay": "ELISA on human HER2 receptor, purified VHH titrated, A450", "remark": "listed apart in the source"}, "human HER2 receptor [7]": {"biological_target": "T1, human HER2 receptor", "assay": "ELISA on human HER2 receptor, purified VHH titrated, A450", "remark": "listed apart in the source"}, "human HER2 receptor [8]": {"biological_target": "T1, human HER2 receptor", "assay": "ELISA on human HER2 receptor, purified VHH titrated, A450", "remark": "listed apart in the source"}, "human HER2 receptor [9]": {"biological_target": "T1, human HER2 receptor", "assay": "ELISA on human HER2 receptor, purified VHH titrated, A450", "remark": "listed apart in the source"}, "human HER2 receptor [10]": {"biological_target": "T1, human HER2 receptor", "assay": "ELISA on human HER2 receptor, purified VHH titrated, A450", "remark": "listed apart in the source"}, "human HER2 receptor [11]": {"biological_target": "T1, human HER2 receptor", "assay": "ELISA on human HER2 receptor, purified VHH titrated, A450", "remark": "listed apart in the source"}},
  "note": "Substitutions are numbered along the chain they refer to. Like-named read-outs stand apart in the source and are kept apart here.",
  "data": [
    {"binder": "B1", "values": [
      {"measurement": "EC50 (read off the curve)", "setting": "human HER2 receptor [1]", "result": "~1", "unit": "nM"},
      {"measurement": "EC50 (read off the curve)", "setting": "human HER2 receptor [2]", "result": "~1", "unit": "nM"},
      {"measurement": "EC50 (read off the curve)", "setting": "human HER2 receptor [3]", "result": "~1", "unit": "nM"}
    ]},
    {"binder": "B2", "values": [
      {"measurement": "EC50 (read off the curve)", "setting": "human HER2 receptor [4]", "result": "~1", "unit": "nM"}
    ]},
    {"binder": "B3", "values": [
      {"measurement": "EC50 (read off the curve)", "setting": "human HER2 receptor [5]", "result": "~1", "unit": "nM"}
    ]},
    {"binder": "B4", "values": [
      {"measurement": "EC50 (read off the curve)", "setting": "human HER2 receptor [6]", "result": "~3", "unit": "nM"}
    ]},
    {"binder": "B5", "values": [
      {"measurement": "EC50 (read off the curve)", "setting": "human HER2 receptor [7]", "result": "~6", "unit": "nM"}
    ]},
    {"binder": "B6", "values": [
      {"measurement": "EC50 (read off the curve)", "setting": "human HER2 receptor [8]", "result": "~10", "unit": "nM"}
    ]},
    {"binder": "B7", "values": [
      {"measurement": "EC50 (read off the curve)", "setting": "human HER2 receptor [9]", "result": "~6", "unit": "nM"}
    ]},
    {"binder": "B8", "values": [
      {"measurement": "binding result", "setting": "human HER2 receptor [10]", "result": "no binding"}
    ]},
    {"binder": "B9", "values": [
      {"measurement": "binding result", "setting": "human HER2 receptor [11]", "result": "no binding"}
    ]}
  ]
}
